The values below come from patent US20250304936A1 (KYUNGPOOK NATIONAL UNIVERSITY INDUSTRY ACADEMIC COOPERATION …, published 2025).

The series concerns the molecule itself. Nature of the series: size exclusion chromatography (Superdex 200 Increase 10/300 GL); self-association of the chain: 92.1 kDa measured against 40.9 kDa calculated for the monomer. How it is done:
(A) Molecular sieve chromatography profiling of purified GH117A α-NABH was performed using a Superdex 200 Increase 10/300 GL column equilibrated with 40 mM Tris-HCl (pH 8.0) containing 150 mM NaCl. At this time, a protein solution containing 500 μg GH117A α-NABH was injected into the column, and the column was eluted at 4° C. at a flow rate of 0.3 mL/min, and the protein elution profile was monitored by measuring absorbance at 280 nm. […]
Molecular sieve chromatography was performed using a Superdex 200 Increase 10/300 GL column (GE Healthcare) equilibrated with 40 mM tris-HCl (pH 8.0) and 150 mM NaCl. Purified GH117A α-NABH (0.5 mg/0.5 mL) was injected into the column, and molecular sieve chromatography was performed under conditions of 4° C. and a flow rate of 0.3 mL/min, and protein elution was measured at a wavelength of 280 nm. For the column, a standard curve of retention volume versus protein molecular weight was obtained using size markers such as ferritin (440 kDa), aldolase (158 kDa), ovalbumin (44 kDa), and ribonuclease A (13.7 kDa), and molecular weight of the purified GH117A α-NABH was measured using the curve.

B1: recombinant His-tagged GH117A α-neoagarobiose hydrolase (α-NABH) of Cellvibrio sp. KY-GH-1 (enzyme)
chain: MGDLPEKKLSKASLRAIERGYDQKNADWVFEFDVKPLGGDFAYQEGVIRRDPSAVIFVDGLYHVWYTKGEGETVGFGSANPEDKVFPWDKTEVWHATSSDGWDWKEQGAAIVAGAPGSYDDRAVFTPEVLAHEGRYYLVYQTVKAPYLNRTKECIALASADSPYGPWVKSPAPILTPADNGVWDGDEDNRFNCKIRGDFDSHKVHDPCLMFYQNKFYLYYKGEIMGERMNFGGREIKHGVAIADKIEGPYVKSEFNPITNSGHEVVVWHVNGGIASLLTTDGPEKNTCQWSPDGINFDIMAHIKGAPEALGLYRDPAADIQDPMAGLAWGLCHKYDSSWNWNYICRFKTRRQILDPGTFQNVAS
notes: The entry under measurements means that the chain associates with itself; also called GH117A α-NABH; GH117 A α-NABH; not shown: C-terminal 6x His tag from vector pET-30a (cloned NdeI/XhoI)
As for B1, the binding result is on record as “binds”.
